{"source": "patent US10370647B2", "about": "(priority 2015, dated 2019)", "molecules": {"B1": {"name": "EGF (protein, UniProt P01133 23-1207, looked up)", "Pro-epidermal growth factor": "PQHWSCPEGTLAGNGNSTCVGPAPFLIFSHGNSIFRIDTEGTNYEQLVVDAGVSVIMDFHYNEKRIYWVDLERQLLQRVFLNGSRQERVCNIEKNVSGMAINWINEEVIWSNQQEGIITVTDMKGNNSHILLSALKYPANVAVDPVERFIFWSSEVAGSLYRADLDGVGVKALLETSEKITAVSLDVLDKRLFWIQYNREGSNSLICSCDYDGGSVHISKHPTQHNLFAMSLFGDRIFYSTWKMKTIWIANKHTGKDMVRINLHSSFVPLGELKVVHPLAQPKAEDDTWEPEQKLCKLRKGNCSSTVCGQDLQSHLCMCAEGYALSRDRKYCEDVNECAFWNHGCTLGCKNTPGSYYCTCPVGFVLLPDGKRCHQLVSCPRNVSECSHDCVLTSEGPLCFCPEGSVLERDGKTCSGCSSPDNGGCSQLCVPLSPVSWECDCFPGYDLQLDEKSCAASGPQPFLLFANSQDIRHMHFDGTDYGTLLSQQMGMVYALDHDPVENKIYFAHTALKWIERANMDGSQRERLIEEGVDVPEGLAVDWIGRRFYWTDRGKSLIGRSDLNGKRSKIITKENISQPRGIAVHPMAKRLFWTDTGINPRIESSSLQGLGRLVIASSDLIWPSGITIDFLTDKLYWCDAKQSVIEMANLDGSKRRRLTQNDVGHPFAVAVFEDYVWFSDWAMPSVMRVNKRTGKDRVRLQGSMLKPSSLVVVHPLAKPGADPCLYQNGGCEHICKKRLGTAWCSCREGFMKASDGKTCLALDGHQLLAGGEVDLKNQVTPLDILSKTRVSEDNITESQHMLVAEIMVSDQDDCAPVGCSMYARCISEGEDATCQCLKGFAGDGKLCSDIDECEMGVPVCPPASSKCINTEGGYVCRCSEGYQGDGIHCLDIDECQLGEHSCGENASCTNTEGGYTCMCAGRLSEPGLICPDSTPPPHLREDDHHYSVRNSDSECPLSHDGYCLHDGVCMYIEALDKYACNCVVGYIGERCQYRDLKWWELRHAGHGQQQKVIVVAVCVVVLVMLLLLSLWGAHYYRTQKLLSKNPKNPYEESSRDVRSRRPADTEDGMSSCPQPWFVVIKEHQDLKNGGQPVAGEDGQAADGSMQPTSWRQEPQLCGMGTEQGCWIPVSSDKGSCPQVMERSFHMPSYGTQTLEGGVEKPHSLLSANPLWQQRALDPPHQMELTQ", "modifications": "Pro-epidermal growth factor"}}, "key": {"KFtx series": {"test_system": "KFtx series", "type": "cell-based", "details": "72 hours"}, "ERK": {"test_system": "ERK", "test": "Change in pERK/tERK by EGF stimulation (In-Cell ELISA)", "type": "cell-based", "details": "all cells (Low, UCA1 Low, Empty Low, KFtx); 0.2 ng/μl EGF, 30 minutes; 10% or 0.5% FBS", "protocol": "The KFtx series (Low, UCA1 Low, Empty Low, and KFtx) were seeded at a cell density of 6×10^3/well in 10% FBS-containing RPMI on a 96-well plate, and were then cultured at 37° C. for 12 hours. Thereafter, the medium was exchanged with RPMI containing 10% FBS or 0.5% FBS. The cells were further cultured at 37° C. for 24 hours, and the medium was then exchanged with another one, to result in an EGF concentration of 0.2 ng/μl. After 30 minutes of EGF stimulation, tERK (total-ERK) and pERK (phosphorylated-ERK) were measured using Pierce Colorimetric In-Cell ELISA Kits (n=3). […] In addition, it was confirmed that, in all cells, pERK was activated by EGF stimulation and the percentage of the pERK was increased."}}, "data": [{"molecule": "B1", "values": [{"measurement": "replication ability of the vaccinia virus by EGF stimulation", "setting": "KFtx series", "value": "not enhanced"}, {"measurement": "percentage of the pERK", "setting": "ERK", "value": "increased"}]}]}
